Measured values reported in patent publication US20170002079A1 (Amgen, published 2017).

T1: human ST2 on primary human cells (human, UniProt Q01638 19-556)
T1 sequence: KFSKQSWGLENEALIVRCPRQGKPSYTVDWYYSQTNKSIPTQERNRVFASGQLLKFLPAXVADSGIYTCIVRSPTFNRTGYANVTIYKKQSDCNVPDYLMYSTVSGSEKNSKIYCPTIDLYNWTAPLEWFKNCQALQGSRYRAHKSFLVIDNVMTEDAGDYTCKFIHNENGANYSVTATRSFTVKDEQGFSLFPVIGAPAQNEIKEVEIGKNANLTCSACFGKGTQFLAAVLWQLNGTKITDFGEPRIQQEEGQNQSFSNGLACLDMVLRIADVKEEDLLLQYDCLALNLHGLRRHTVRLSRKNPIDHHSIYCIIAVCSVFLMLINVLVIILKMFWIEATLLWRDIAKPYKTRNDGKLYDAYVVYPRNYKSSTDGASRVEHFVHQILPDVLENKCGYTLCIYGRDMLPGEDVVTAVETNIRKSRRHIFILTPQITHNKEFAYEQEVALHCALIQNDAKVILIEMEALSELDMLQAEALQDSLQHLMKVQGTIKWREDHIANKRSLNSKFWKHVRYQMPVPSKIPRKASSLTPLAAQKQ

T2: cynomolgus monkey ST2 on cynomolgus monkey CD4+ T cells (cynomolgus monkey, UniProt Q01638 19-556 (human entry))
T2 chain: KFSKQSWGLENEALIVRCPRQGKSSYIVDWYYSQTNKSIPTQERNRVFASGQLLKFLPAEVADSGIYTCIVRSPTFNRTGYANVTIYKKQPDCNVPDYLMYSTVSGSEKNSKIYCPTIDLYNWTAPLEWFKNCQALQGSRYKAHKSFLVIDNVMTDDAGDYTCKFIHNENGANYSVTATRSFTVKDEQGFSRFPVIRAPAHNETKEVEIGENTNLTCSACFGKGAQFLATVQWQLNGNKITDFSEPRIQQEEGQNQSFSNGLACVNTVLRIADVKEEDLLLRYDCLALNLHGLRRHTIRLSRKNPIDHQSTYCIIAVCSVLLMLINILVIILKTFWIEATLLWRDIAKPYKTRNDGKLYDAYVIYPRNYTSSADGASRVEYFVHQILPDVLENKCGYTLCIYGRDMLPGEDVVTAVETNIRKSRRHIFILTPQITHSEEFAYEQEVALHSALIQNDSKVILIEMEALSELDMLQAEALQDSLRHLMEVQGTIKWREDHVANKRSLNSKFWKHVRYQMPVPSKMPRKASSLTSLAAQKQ


What was measured:
[1] = target: T1, human ST2 on primary human cells; assay: cell-based or functional assay
[2] = target: ST2 (Example 4, pH-sensitive binding); assay: SPR Biacore 4000; kd at pH 5.5 against kd at pH 7.4
Method: (§1) The association (5 min) rates at pH 7.4 and dissociation (10 min) rates at pH 5.5 and 7.4 were monitored at a flow rate of 30 uL/min. The reference subtracted data was fit to a 1:1 model in Scrubber.

[3] = target: ST2 (Example 4, pH-sensitive binding); assay: SPR Biacore 4000; association at pH 7.4, dissociation at pH 5.5; estimated kd
Method: as §1

[4] = target: ST2 (Example 4, pH-sensitive binding); assay: SPR Biacore 4000; association at pH 7.4, dissociation at pH 7.4; estimated kd
Method: as §1

[5] = target: T1, human ST2 on primary human cells; assay: cell-based or functional assay; remark: listed apart in the source
[6] = target: T2, cynomolgus monkey ST2 on cynomolgus …; assay: cell-based or functional assay
[7] = target: T1, human ST2 on primary human cells; assay: cell-based or functional assay; remark: listed apart in the source

IC50 (read off the curve); % inhibition of IL-5 production by human CD4+ T cells stimulated with human IL-33 + IL-2 [1] | pH 7.4/pH 5.5 kd fold change [2] | koff [3] | koff [4] | IC50 (nM), inhibition of human IL-33-induced IL-5 production from human CD4+ T cells [5] | IC-50, cynomolgus monkey CD4+ T cell IFNγ release assay (IL-33, IL-2 and IL-12p70 stimulation) [6] | IC-50, human eosinophil IL-8 release assay (IL-33 and IL-3 stimulation) [7] | Binder
~0.08 µg/mL | 16.9 fold | 0.0107 s⁻¹ | 0.000632 s⁻¹ |  |  |  | Ab4 (antibody, human IgG2, kappa, V domains shown, Fully human anti-ST2 antibody) VH: QVQLVQSGAEVKKPGASVKVSCEVSGFILTELSVNWVRQAPGKGLEWMGGFDPEDGKTIYAQKFQGRVTLTEDTSTDTAYMELSSLRSEDTAVYYCATWWDFHFDFWGQGTLVTVSS VL: DFVMTQTPLSLSVTPGQPASISCKSSQSLLHSNGKTYLYWFLQKPGQPPQLLIYEVSNRFSGVPDRFSGSGSGTDFTLKISRVEAEDVGVYYCMQSIQLPLTFGGGTKVEIKR
~0.09 µg/mL |  |  |  |  |  |  | Ab6 (antibody, human IgG2, kappa, V domains shown) VH: EVQLVESGGGLVQPGGSLRLSCAASGFTFSTYDMHWVRQTTGKGLEWVSAIDLAGDTYYPGSVKGRFTISREDAKNSLYLQMNSLRAGDTAVYYCARGGDGYNYDYYGIDVWGQGTTVTVSS VL: DIVMTQSPLSLPVTPGEPASISCRSSQSLLHSDGYHYLDWYLQKPGQSPQLLIYLGSNRASGVPDRFSGSGSGTDFTLNISRVEAEDVGVYYCMQALQTLTFGGGTKVEIKR
~0.09 µg/mL |  |  |  |  |  |  | Ab5 (antibody, human IgG2, kappa, V domains shown) VH: EVQLVESGGGWVQPGGSLRLSCAASGFTFSSYDMYWVRQATGKGLEWVSGIDTVGDTYYPDSVKGRFTISRENAKNSVYLQMNTLRAGDTAVYYCVRGIYGDFYYYGLDVWGHGTTVTVSS VL: DIVMTQSPLSLPVTPGEPASISCRSSQSLLYSDGNNYLDWYLQKPGQSPHLLIYLGSNRASGVPDRFSGSGSGTDFTLKISRVEADDVGVYYCMQALQTLTFGGGTKVEIKR
~0.02 µg/mL |  |  |  |  |  |  | Ab7 (antibody, human IgG2, kappa, V domains shown) VH: EVQLVESGGGLVQPGGSLRLSCAASGFTFSTYDMHWVRQTTGKGLEWVSAIDLAGDTYYPGSVKGRFTISREDAKNSLYLQMNSLRAGDTAVYYCARGGDGYNYDYYGIDVWGQGTTVTVSS VL: DIVMTQSPLSLPVTPGEPASISCRSSQSLLHSDGYHYLDWYLQKPGQSPQLLIYLGSNRASGVPDRFSGSGSGTDFTLNISRVEAEDVGVYYCMQALQTLTFGGGTKVEIKR
~0.3 µg/mL | 2.9 fold | 7.91e-05 s⁻¹ | 2.73e-05 s⁻¹ |  |  |  | Ab3 (antibody, human IgG2, kappa, V domains shown, Fully human anti-ST2 antibody) VH: EVQLVESGGGLVQPGGSLRLSCAASGFTFSTYDMHWIRQAPGKNLEWVSAIDLAGDTYYPGSVKGRFTISREDAKNSLYLQMNSLRAGDTAVYYCARGGDGYNYDYYGIDVWGQGTTVTVSS VL: DIVMTQSPLSLPVTPGEPASISCRSSQSLLHSDGYHYLDWYLQKPGQSPQLLIYLGSNRASGVPDRFTGSGSGTDFTLKISRVEAEDVGVYYCMQALQILTFGGGTKVEIKR
~0.03 µg/mL | 8 fold | 0.000238 s⁻¹ | 2.98e-05 s⁻¹ |  |  |  | Ab2 (antibody, human IgG2, kappa, V domains shown, Fully human anti-ST2 antibody (XenoMouse); Full chains are the exemplary Ab2 chains) VH: EVQLVQSGAEVKKPGESLKISCKGSGYSFTNYWIGWVRQMPGKGLEWMGIIYPGNSDTRFSPSFQGQVTISADKSITTAYLQWSSLKASDTAMYYCARHGTSSDYYGLDVWGQGTTVTVSS VL: not shown
 | 88.1 fold | 0.0118 s⁻¹ | 0.000134 s⁻¹ |  |  |  | Ab1 (antibody, human IgG2, kappa, V domains shown, Fully human anti-ST2 antibody (XenoMouse); Full chains are the exemplary Ab1 chains) VH: QVQLVQSGAEVKKPGASVKVSCKVSGYTLTELSIHWVRQAPGKGLEWMGGFGPEDGETIYAQKFQGRVTMTEDTSTDTAYMELSSLRSEDTAVYYCTTEDSSGLFDYWGQGTLVTVSS VL: not shown
~0.9 µg/mL |  |  |  | 6.9 nM | 158 pM | 3120 pM | Ab8 (antibody, human IgG2, kappa, V domains shown) VH: EVQLVESGGGLVQPGGSLRLSCAASGFTFSSYDMYWVRQATGKGLEWVSAIDTVGDTYYPGSVKGRFTISRENAKNSLYLQMNSLRVGDTAVYYCARGGDYDYSYYGMDVWGQGTTVTVSS VL: not shown
